Blank lines part the entries; values can stand above or below the molecule they belong to.
Columns and labels:
THP-1 cells [1] = experiment: Transwell trans-endothelial migration of THP-1 cells; format: cell-based, human; conditions: 2.5 μM STAT inhibitor
LILRB4 = biological target: T1, LILRB4 (Homo sapiens, UniProt Q8NHJ6); experiment: LILRB4 chimeric receptor reporter cells (NFAT-GFP); format: cell-based; conditions: for Activation of LILRB4 reporter by APOE isoforms: 40 μg/ml APOEs coated on plates or soluble; for Activation of LILRB4 reporter: percentage of GFP+ reporter cells
T1 construct: fusion of the extracellular domain (ECD) of individual LILRBs and their mouse orthologues; PILRbeta part (fusion partner); expressed in transfected cells
Description: The inventors sought to determine if antagonizing LILRB4 could prevent AML development by reversing LILRB4-mediated immune inhibition. To identify potential agonists and antagonists of LILRBs, the inventors generated individual stable chimeric receptor reporter cells based on fusion of the extracellular domain (ECD) of individual LILRBs and their mouse orthologues PirB^27 and gp49B1^28, with the intracellular domain of paired immunoglobulin-like receptor β, which signals through the adaptor DAP-12 to activate NFAT promoter-driven GFP expression, as the inventors have described^2, 31. With help from this system, the inventors generated novel anti-LILRB4 blocking antibodies to further assess LILRB4-mediated signaling (FIG. 10).
(§1) Chimeric receptor reporter cells. The inventors constructed a stable chimeric receptor reporter cell system as described^2 31 to test the ability of a ligand to bind to the ECD of individual LILRBs, PirB, and gp49B1 and to trigger the activation or inhibition of the chimerically fused intracellular domain of paired immunoglobulin-like receptor β, which signals through the adaptor DAP-12 to activate the NFAT promoter. If an agonist or antagonist binds the ECD and activates or suppresses the chimeric signaling domain, an increase or decrease, respectively, in GFP expression is observed.
APOE competition assay was used to screen LILRB4 blocking antibodies. Briefly, APOE proteins were pre-coated on 96-well plate at 37° C. for 3 hrs. After 2 times washing by PBS, 2×10^4 LILRB4 reporter cells were seeded in each well; meanwhile, indicated anti-LILRB4 antibodies were added into culture media. After 16 hrs, the percentage of GFP^+ reporter cells was analysed by flow cytometry.

LILRB4-Fc [2] = biological target: T2, LILRB4-Fc (Homo sapiens, UniProt Q8NHJ6); experiment: Surface plasmon resonance (SPR) binding of APOE to LILRB4-Fc; conditions: APOE 1.5625 nM to 100 nM
Description: (§2) FIGS. 25a-251—APOE binds LILRB4 and supports AML migration. FIG. 25a: As shown by analysis of the percentage of cells in the LILRB4 reporter system that are GFP^+, human serum and mouse serum specifically activate LILRB4. FIG. 25b: Recombinant APOE activates human LILRB4 and mouse PIRB in reporter systems. FIG. 25c: Serum from APOE-null mouse was unable to activate LILRB4. FIG. 25d: Lipid-reconstituted APOE (APOE-POPC) activates human LILRB4 as well as recombinant APOE in reporter systems. […] Cells stained with anti-His tag-APC served as a negative control. FIG. 25f: Binding kinetics of human APOE-3 to LILRB4-ECD-Fc were measured using surface plasmon resonance (SPR). LILRB4-ECD-Fc was immobilized on Protein A biosensor tips and incubated with APOE-3 concentrations ranging from 1.5625 nM to 100 nM. FIG. 25g: The activation of LILRB4 by APOE was reduced by mutation at N-terminal of APOE. FIG. 25h: The activation of LILRB4 by APOE was reduced by the indicated single amino acid mutation of LILRB4. FIG. 25i-FIG. 25l: APOE is necessary for LILRB4-mediated homing. Forced expression of human lilrb4 on mouse leukemia C1498 cells increases leukemia cell homing in wildtype (WT) recipient mice (n=5) (shown in FIG. 25i). Human lilrb4-expressing C1498 cells (1), but not control GFP-expressing C1498 cells (FIG. 25k), were less capable of homing in APOE-null (KO) mice (n=5) than in WT mice (n=5); Mice were sacrificed at 20 hrs after injection of leukemia cells. GFP was used to detect leukemia cells by flow cytometry.
(§3) FIGS. 29a-29g—Three APOE isoforms bind to human LILRB4. FIGS. 29a-c: Binding kinetics of APOE 2, 3, and 4 to LILRB4-Fc were measured using surface plasmon resonance (SPR). LILRB4-Fc was immobilized on Protein A biosensor tips and incubated with APOE concentrations ranging from 1.5625 nM to 100 nM. […] (FIGS. 29d-f) Binding kinetics of APOE 2, 3, and 4 to LILRB4-Fc were measured using Bio-layer Interferometry (Octet). LILRB4-Fc was immobilized on Protein A biosensor tips and incubated with APOE concentrations ranging from 44 nM to 1176 nM. […] (FIG. 29g) Binding kinetics of APOE 3 to His-LILRB4 was measured using microscale thermophoresis (MST).

LILRB4-Fc [3] = biological target: T2, LILRB4-Fc; experiment: Bio-layer interferometry (Octet) binding of APOE to LILRB4-Fc; conditions: APOE 44 nM to 1176 nM
Protocol: as §3
Bio-layer Interferometry. Binding interactions analyses between LILRB4-Fc with APOE2, APOE3, and APOE4 were performed on the Octet RED96 (ForteBio, Pall Corporation). All interaction studies were performed with the protein A dip-and-read biosensors (ForteBio). All binding experiments were performed using the Octet Red and kinetics buffer at 30° C. LILRB4-Fc coated biosensors (25 μg/ml LILRB4-Fc was loaded for 420 s) were washed in kinetics buffer before monitoring of association (300 s) and dissociation (600 s) of APOEs. Background wavelength shifts were measured from reference sensors that were loaded only with LILRB4-Fc.

PirB = biological target: T3, PirB (Mus musculus, UniProt P97484); experiment: PirB chimeric receptor reporter cells; format: cell-based
T3 construct: PILRbeta part (fusion partner); expressed in transfected cells
T3 sequence (P97484 25-642): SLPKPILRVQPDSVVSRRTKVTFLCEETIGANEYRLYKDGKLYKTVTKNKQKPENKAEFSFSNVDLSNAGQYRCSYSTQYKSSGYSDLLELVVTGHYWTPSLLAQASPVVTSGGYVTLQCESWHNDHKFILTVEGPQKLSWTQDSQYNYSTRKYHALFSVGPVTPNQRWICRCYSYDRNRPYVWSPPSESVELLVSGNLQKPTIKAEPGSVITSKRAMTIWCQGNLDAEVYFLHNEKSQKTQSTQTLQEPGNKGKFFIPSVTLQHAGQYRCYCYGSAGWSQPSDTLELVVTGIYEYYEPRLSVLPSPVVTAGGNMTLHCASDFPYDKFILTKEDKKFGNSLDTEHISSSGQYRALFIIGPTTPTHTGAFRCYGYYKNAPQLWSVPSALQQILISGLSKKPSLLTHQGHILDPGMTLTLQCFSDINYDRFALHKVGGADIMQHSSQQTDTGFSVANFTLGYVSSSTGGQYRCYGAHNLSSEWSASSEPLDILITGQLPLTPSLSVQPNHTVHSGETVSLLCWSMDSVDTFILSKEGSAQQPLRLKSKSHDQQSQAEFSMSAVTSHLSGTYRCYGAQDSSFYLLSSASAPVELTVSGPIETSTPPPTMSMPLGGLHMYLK
Description: as §1

THP-1 cells [4] = experiment: APOE binding to THP-1 cells by flow cytometry; set-up: species or system human; conditions: lilrb4-knockout versus wild-type THP-1 cells
Description: as §2, with “Human lilrb4-expressing C1498 cells (1), but not control GFP-expressing C1498 cells (FIG. 25k), were less capable of homing in APOE-null (KO) mice (n=5) than in WT mice (n=5); Mice were sacrificed at 20 hrs after injection of leukemia cells. GFP was used to detect leukemia cells by flow cytometry.” left out

gp49B1 = biological target: T4, gp49B1 (Mus musculus, UniProt Q64281); experiment: gp49B1 chimeric receptor reporter cells; format: cell-based
T4 construct: PILRbeta part (fusion partner); expressed in transfected cells
T4 sequence (Q64281 24-238): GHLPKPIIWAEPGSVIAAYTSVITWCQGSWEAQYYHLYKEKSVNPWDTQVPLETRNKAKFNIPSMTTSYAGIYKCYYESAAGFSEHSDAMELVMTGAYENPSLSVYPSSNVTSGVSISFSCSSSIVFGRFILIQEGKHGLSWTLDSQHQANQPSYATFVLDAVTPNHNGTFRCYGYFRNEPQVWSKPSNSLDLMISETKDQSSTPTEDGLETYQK
Description: as §1

[5] = tested on: T cells co-cultured with THP-1 cells; experiment: Tumor cell/T cell co-culture assay; format: cell-based, human; conditions: T cells with irradiated THP-1 cells, protein supplemented
Protocol: Tumor cell/T cell co-culture assay. Human T cells isolated from health donor peripheral blood (PB009-1-0, Allcells) were co-cultured with irradiated (28 Gy) THP-1 cells in a U-bottom 96 well-plate for 3-7 days. Anti-CD3/CD28-coated beads (#11161D, Thermo Fisher), 50 U/ml recombinant human IL-2, and 5 ng/ml recombinant human IL-7 were supplemented to the medium. In some experiments, THP-1 cells were cultured in the upper chamber of transwell inserts (pore size is 3 μM, #09-761-80, Thermo Fisher) for the U-bottom 96 well-plate. For primary AML or B-ALL samples, patient CD3^+ T cells were collected and patient leukemia cells were sorted as CD33^+ and CD19^+ for AML and B-ALL, respectively.
CD8^+ T cells (5×10^4 per well) isolated from hPBMCs of a healthy donor (Interstate Blood Bank) were stimulated with anti-CD3/CD28/CD137-coated beads (11163D, Thermo Fisher) or cultured without stimulation for 2 days in a 96-well plate. Then, 5×10^3 human leukemia THP-1-Luc-GFP cells and 50 to 500 μg/ml anti-LILRB4 antibody C84 or control antibody mIgG were added. Cell numbers were determined on day 7 in triplicate wells. Anti-CD8 and anti-CD28 were used to detect human CTL cells; THP-1 cells were positive for GFP. […]

T2 sequence (Q8NHJ6 22-259 limits assumed): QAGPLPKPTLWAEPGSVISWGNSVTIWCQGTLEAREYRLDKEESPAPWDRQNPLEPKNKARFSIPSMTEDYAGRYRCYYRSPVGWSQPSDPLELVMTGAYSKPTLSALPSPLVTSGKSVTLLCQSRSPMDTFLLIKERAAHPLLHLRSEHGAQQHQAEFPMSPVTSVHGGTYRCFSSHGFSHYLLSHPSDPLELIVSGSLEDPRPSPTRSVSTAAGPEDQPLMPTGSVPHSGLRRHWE
T1 sequence (Q8NHJ6 with tags, fused parts or gaps): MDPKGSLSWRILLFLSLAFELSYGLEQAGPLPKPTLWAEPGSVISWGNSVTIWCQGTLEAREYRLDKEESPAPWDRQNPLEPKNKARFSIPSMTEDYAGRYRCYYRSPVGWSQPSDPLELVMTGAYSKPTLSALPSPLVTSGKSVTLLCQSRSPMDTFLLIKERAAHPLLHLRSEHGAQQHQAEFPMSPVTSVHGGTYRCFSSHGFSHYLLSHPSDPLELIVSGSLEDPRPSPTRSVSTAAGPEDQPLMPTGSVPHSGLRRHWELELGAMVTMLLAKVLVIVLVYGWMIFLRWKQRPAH

Molecule: O=[N+]([O-])c1ccc2c(c1)S(=O)(=O)C=C2 [stattic, reference compound]
- THP-1 cell transmigration across endothelial cells (THP-1 cells [1]): decreases

- Activation of LILRB4 reporter by APOE isoforms (LILRB4): activate
- Kd (LILRB4-Fc [2]): 5.53 nM
- Kd (LILRB4-Fc [3]): 60.7 nM
Molecule: APOE2: isoform of human APOE, ligand of LILRB4

- Activation of LILRB4 reporter by APOE isoforms (LILRB4): activate
- Kd (LILRB4-Fc [2]): 2.48 nM
- Kd (LILRB4-Fc [3]): 61.7 nM
Molecule: APOE3: isoform of human APOE, ligand of LILRB4

- Activation of LILRB4 reporter by APOE isoforms (LILRB4): activate
- Kd (LILRB4-Fc [2]): 3.57 nM
- Kd (LILRB4-Fc [3]): 48.4 nM
Molecule: APOE4: isoform of human APOE, ligand of LILRB4

- Activation of LILRB4 reporter (LILRB4): same ability as lipid-free APOE protein
Molecule: APOE-POPC: liposome-reconstituted APOE protein

- Activation of LILRB4 reporter (LILRB4): activates
- Kd (LILRB4-Fc [2]): 2 nM
- Activation of mouse PirB reporter (PirB): specifically activated
- Activation of gp49B1 reporter (gp49B1): not
Molecule: recombinant APOE: recombinant APOE protein, isoform not stated at the place
- Binding of APOE to THP-1 cells (THP-1 cells [4]): significantly decreased

- Activation of LILRB4 reporter (LILRB4): can activate
B1: mouse APOE: mouse APOE protein (protein)
chain: EGEPEVTDQLEWQSNQPWEQALNRFWDYLRWVQTLSDQVQEELQSSQVTQELTALMEDTMTEVKAYKKELEEQLGPVAEETRARLGKEVQAAQARLGADMEDLRNRLGQYRNEVHTMLGQSTEEIRARLSTHLRKMRKRLMRDAEDLQKRLAVYKAGAREGAERGVSAIRERLGPLVEQGRQRTANLGAGAAQPLRDRAQAFGDRIRGRLEEVGNQARDRLEEVREHMEEVRSKMEEQTQQIRLQAEIFQARLKGWFEPIVEDMHRQWANLMEKIQASVATNPIITPVAQENQ

B2: CCL4: CCL4 protein supplemented in co-culture media (protein, UniProt P13236 24-92, looked up)
C-C motif chemokine 4: APMGSDPPTACCFSYTARKLPRNFVVDYYETSSLCSQPAVVFQTKRSKQVCADPSESWVQEYVYDLELN
- T cell proliferation in coculture [5]: suppressed

- Activation of LILRB4 reporter (LILRB4): significantly reduced
B3: Mut-N: N-terminal mutant of human APOE: R142A/K143A/R145A/K146A/R147A/R150A (protein)
chain: KVEQAVETEPEPELRQQTEWQSGQRWELALGRFWDYLRWVQTLSEQVQEELLSSQVTQELRALMDETMKELKAYKSELEEQLTPVAEETRARLSKELQAAQARLGADMEDVCGRLVQYRGEVQAMLGQSTEELRVRLASHLAALAAALLADADDLQKRLAVYQAGAREGAERGLSAIRERLGPLVEQGRVRAATVGSLAGQPLQERAQAWGERLRARMEEMGSRTRDRLDEVKEQVAEVRAKLEEQAQQIRLQAEAFQARLKSWFEPLVEDMQRQWAGLVEKVQAAVGTSAAPVPSDNH
